# Laboratory results from article PMC9299485, “4‐Iodopyrimidine Labeling Reveals Nuclear Translocation and Nuclease Activity for Both MIF and MIF2” (Chemistry (Weinheim an Der Bergstrasse, Germany), 2021).
# B1: MIF: recombinant human macrophage migration inhibitory factor, tested as nuclease on hgDNA (protein, UniProt P14174 2-115, looked up)
# Macrophage migration …: PMFIVNTNVPRASVPDGFLSELTQQLAQATGKPPQYIAVHVVPDQLMAFGGSSEPCALCSLHSIGKIGGAQNRSYSKLLCGLLAERLRISPDRVYINYYDMNAANVGWNNSTFA
# B2: MIF2: recombinant human MIF2 (D-dopachrome tautomerase), tested as nuclease on hgDNA (protein, UniProt P30046 2-118, looked up)
# D-dopachrome decarboxylase: PFLELDTNLPANRVPAGLEKRLCAAAASILGKPADRVNVTVRPGLAMALSGSTEPCAQLSISSIGVVGTAEDNRSHSAHFFEFLTKELALGQDRILIRFFPLESWQIGKIGTVMTFL
# Test system: human genomic DNA
# Experiment: Nuclease assay of MIF and MIF2 on human genomic DNA (agarose gel)
# Format: biochemical
# Details: for concentration giving complete hgDNA cleavage: within 2 h, 37°C, Mg2+
# Description: 7. Nuclease activity of MIF and MIF2.
# Human genomic DNA was obtained from RPE-1 cells by DNA extraction following the protocol described in literature.[10] The nuclease assays were conducted by following the procedure described previously.[8] hgDNA (200 ng/reaction) was incubated with MIF or MIF2 in final concentration of 0.62 -20 µM as indicated in 10Mm Tris-HCl buffer (pH 7.0) containing 10mM MgCl2 (B and C) or specific buffer as indicated at 37°C for two hours. The reaction was terminated with loading buffer containing 10mM EDTA and incubation on ice. The human genomic DNA samples were immediately separated on a 1% agarose gel containing SYBR Safe (ThermoFisher) in 0.5 X TBE buffer with initial switch time of 1.5 s and a final switch time of 3.5 s for 12 hours at 6 V/cm. DNA was further detected by chemiluminescence.
# Figure S7. hgDNA cleavage activity of MIF and MIF2. (A) The MIF2 nuclease activity is Mg 2+- […]
# BITC is a covalent inhibitor that can form covalent bond with the N-terminal proline.[11] (C) […]
# (1 picture or pasted object on this page, not shown here)
Molecule,concentration giving complete hgDNA cleavage,nuclease activity relative to MIF (lower activity than MIF) [fold]
B1,1.25 µM,–
B2,above 10 μM,10
